{"source": "paper PMC4230619", "about": "(Molecular Biology of the Cell, 2014)", "proteins": {"B1": {"name": "dynamin2-EGFP (natural protein, human (endogenous in SUM159), UniProt P50570 1-870, looked up)", "chain": "MGNRGMEELIPLVNKLQDAFSSIGQSCHLDLPQIAVVGGQSAGKSSVLENFVGRDFLPRGSGIVTRRPLILQLIFSKTEHAEFLHCKSKKFTDFDEVRQEIEAETDRVTGTNKGISPVPINLRVYSPHVLNLTLIDLPGITKVPVGDQPPDIEYQIKDMILQFISRESSLILAVTPANMDLANSDALKLAKEVDPQGLRTIGVITKLDLMDEGTDARDVLENKLLPLRRGYIGVVNRSQKDIEGKKDIRAALAAERKFFLSHPAYRHMADRMGTPHLQKTLNQQLTNHIRESLPALRSKLQSQLLSLEKEVEEYKNFRPDDPTRKTKALLQMVQQFGVDFEKRIEGSGDQVDTLELSGGARINRIFHERFPFELVKMEFDEKDLRREISYAIKNIHGVRTGLFTPDLAFEAIVKKQVVKLKEPCLKCVDLVIQELINTVRQCTSKLSSYPRLREETERIVTTYIREREGRTKDQILLLIDIEQSYINTNHEDFIGFANAQQRSTQLNKKRAIPNQGEILVIRRGWLTINNISLMKGGSKEYWFVLTAESLSWYKDEEEKEKKYMLPLDNLKIRDVEKGFMSNKHVFAIFNTEQRNVYKDLRQIELACDSQEDVDSWKASFLRAGVYPEKDQAENEDGAQENTFSMDPQLERQVETIRNLVDSYVAIINKSIRDLMPKTIMHLMINNTKAFIHHELLAYLYSSADQSSLMEESADQAQRRDDMLRMYHALKEALNIIGDISTSTVSTPVPPPVDDTWLQSASSHSPTPQRRPVSSIHPPGRPPAVRGPTPGPPLIPVPVGAAASFSAPPIPSRPGPQSVFANSDLFPAPPQIPSRPVRIPPGIPPGVPSRRPPAAPSRPTIIRPAEPSLLD"}}, "molecular_target": "the molecule itself", "experiment": "single-molecule TIRF step-intensity counting in live cells", "data": [{"protein": "B1", "values": [{"measurement": "stoichiometry N", "value": 2}]}]}
